Laboratory results published in article PMC5441565 (Nature, 2017).
Each block holds one molecule with its values, some of them ahead of it.

Tests used:
[1] = target: mCherry-LacI-TIRR (human) (UniProt Q9BRJ7); assay: LacO/LacI tethering
GFP-LacI-53BP1 (human) = GFP-LacI-53BP1 (human) (UniProt Q12888); assay: LacO/LacI tethering
[2] = target: TIRR-His (recombinant TIRR) (human, UniProt Q9BRJ7 1-211); assay: ITC
Sequence of TIRR-His (recombinant TIRR) (Q9BRJ7 whole entry): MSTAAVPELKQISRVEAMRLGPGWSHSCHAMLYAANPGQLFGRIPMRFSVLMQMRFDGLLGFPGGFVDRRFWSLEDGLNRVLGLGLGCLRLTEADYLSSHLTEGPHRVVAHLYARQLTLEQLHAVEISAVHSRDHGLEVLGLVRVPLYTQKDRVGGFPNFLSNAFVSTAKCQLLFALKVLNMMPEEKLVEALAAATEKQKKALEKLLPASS

Sequence of GFP-LacI-53BP1 (human) (Q12888 whole entry): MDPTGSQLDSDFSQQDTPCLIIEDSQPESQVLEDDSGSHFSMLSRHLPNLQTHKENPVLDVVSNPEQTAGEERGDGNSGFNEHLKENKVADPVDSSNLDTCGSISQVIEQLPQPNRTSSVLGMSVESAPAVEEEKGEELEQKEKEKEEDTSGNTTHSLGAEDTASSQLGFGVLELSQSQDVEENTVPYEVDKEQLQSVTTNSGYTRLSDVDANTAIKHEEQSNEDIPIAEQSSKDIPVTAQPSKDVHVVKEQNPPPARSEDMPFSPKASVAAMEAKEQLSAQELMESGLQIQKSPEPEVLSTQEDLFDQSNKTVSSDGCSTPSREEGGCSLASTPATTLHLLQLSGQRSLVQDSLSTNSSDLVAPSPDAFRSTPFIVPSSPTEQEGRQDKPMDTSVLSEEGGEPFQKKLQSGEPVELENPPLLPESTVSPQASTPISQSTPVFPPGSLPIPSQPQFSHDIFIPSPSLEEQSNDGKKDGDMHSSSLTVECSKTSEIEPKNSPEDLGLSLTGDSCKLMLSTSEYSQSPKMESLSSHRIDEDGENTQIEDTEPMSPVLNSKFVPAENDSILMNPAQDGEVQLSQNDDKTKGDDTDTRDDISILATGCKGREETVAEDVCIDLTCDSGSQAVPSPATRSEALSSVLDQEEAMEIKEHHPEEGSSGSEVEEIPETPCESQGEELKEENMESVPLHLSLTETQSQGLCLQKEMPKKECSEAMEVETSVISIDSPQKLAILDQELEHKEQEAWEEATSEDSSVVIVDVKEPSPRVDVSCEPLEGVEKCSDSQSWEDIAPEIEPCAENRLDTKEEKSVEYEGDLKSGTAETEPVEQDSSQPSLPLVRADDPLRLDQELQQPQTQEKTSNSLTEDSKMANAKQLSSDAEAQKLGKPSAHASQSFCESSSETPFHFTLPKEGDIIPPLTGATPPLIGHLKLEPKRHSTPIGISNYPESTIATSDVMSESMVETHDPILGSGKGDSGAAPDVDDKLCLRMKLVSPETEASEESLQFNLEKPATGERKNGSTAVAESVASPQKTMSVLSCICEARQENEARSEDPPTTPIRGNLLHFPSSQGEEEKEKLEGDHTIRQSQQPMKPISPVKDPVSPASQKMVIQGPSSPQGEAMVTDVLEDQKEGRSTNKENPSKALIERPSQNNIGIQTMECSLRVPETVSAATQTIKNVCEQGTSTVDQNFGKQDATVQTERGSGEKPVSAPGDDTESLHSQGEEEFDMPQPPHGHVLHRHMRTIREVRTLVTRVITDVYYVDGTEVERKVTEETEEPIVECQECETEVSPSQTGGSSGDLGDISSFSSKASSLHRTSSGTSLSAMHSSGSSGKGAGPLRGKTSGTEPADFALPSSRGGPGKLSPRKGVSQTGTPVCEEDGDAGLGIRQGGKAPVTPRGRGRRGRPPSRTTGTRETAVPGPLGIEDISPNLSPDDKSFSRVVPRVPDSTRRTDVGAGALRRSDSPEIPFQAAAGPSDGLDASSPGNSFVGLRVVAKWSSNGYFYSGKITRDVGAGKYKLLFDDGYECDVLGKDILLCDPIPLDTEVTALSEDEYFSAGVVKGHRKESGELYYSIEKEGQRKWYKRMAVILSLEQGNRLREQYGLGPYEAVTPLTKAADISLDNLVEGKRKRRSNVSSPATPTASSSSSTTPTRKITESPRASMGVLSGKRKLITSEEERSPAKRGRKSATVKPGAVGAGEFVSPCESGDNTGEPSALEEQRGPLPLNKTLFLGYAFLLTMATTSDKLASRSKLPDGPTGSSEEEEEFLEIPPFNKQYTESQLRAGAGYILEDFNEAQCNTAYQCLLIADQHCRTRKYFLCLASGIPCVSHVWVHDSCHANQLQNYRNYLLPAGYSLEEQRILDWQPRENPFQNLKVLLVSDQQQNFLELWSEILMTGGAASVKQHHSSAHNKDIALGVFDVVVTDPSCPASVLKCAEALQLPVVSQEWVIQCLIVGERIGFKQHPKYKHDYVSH
Sequence of mCherry-LacI-TIRR (human) (Q9BRJ7 whole entry): as the sequence (Q9BRJ7 whole entry) above

percent of cells with co-localisation on the LacO array (% of the cells) [1]: 57.5
Molecule: 53BP1 (P53-binding protein 1), endogenous (from UniProt Q12888 1-1972) (natural protein)

percent of cells with co-localisation on the LacO array (% of the cells) (GFP-LacI-53BP1 (human)): 72
Molecule: mCherry-TIRR (from UniProt Q9BRJ7 1-211) (natural protein)

Kd [2]: 790 nM | stoichiometry N [2]: 1
B1: 53BP1 tandem Tudor domain (for ITC and NMR) (domain or fragment)
chain: NSFVGLRVVAKWSSNGYFYSGKITRDVGAGKYKLLFDDGYECDVLGKDILLCDPIPLDTEVTALSEDEYFSAGVVKGHRKESGELYYSIEKEGQRKWYKRMAVILSLEQGNRLREQYGLG
modifications: 15N-labelled for NMR; limits from PDB 2G3R (GHM tag remnant left out)
